The nature of assay [1]: ICV injection, food intake in 24-h fasted rats (studies 1a, 2a). The format is in vivo, rat. The following applies: ICV 3 nmol, vs saline. An excerpt:
(§1) Animals were handled daily after recovery from surgery until completion of the studies.
(§2) Animals had permanent stainless steel guide cannulas (Plastics One, Roanoke, Va.) stereotactically implanted ICV (intracerebraventricularly) or iPVN (into the hypothalamic paraventricular nucleus).

The nature of assay [2]: iPVN injection, food intake in 24-h fasted rats (studies 1b, 2b). The following applies: iPVN 1 nmol, any time point. Type of assay: in vivo, rat. The procedure: as §1, §2
Therefore, exendin-4 was injected iPVN at a dose of 0.03 nmol.

One molecule from patent US7825091B2, “Modification of feeding behaviour” (Imperial Innovations Limited, priority 2003, dated 2010) can be followed below.

B1: glicentin (peptide, UniProt P01275 21-89, looked up)
Glicentin: RSLQDTEEKSRSFSASQADPLSDPDQMNEDKRHSQGTFTSDYSKYLDSRRAQDFVQWLMNTKRNRNNIA
modifications: Glicentin
notes: proglucagon-derived peptide purchased from Peninsula Laboratories
B1: the “food intake (refeeding) after ICV injection” value in assay [1] is reported as “failed to affect food intake at any time point”. Also, the “food intake after iPVN injection” value in assay [2] is “failed to affect food intake at any time point”.
